Literature values as cited in paper PMC8353491.

Target: Ubc9 (Homo sapiens) (UniProt P63279)
UniProt P63279, sequence (P63279 2-158): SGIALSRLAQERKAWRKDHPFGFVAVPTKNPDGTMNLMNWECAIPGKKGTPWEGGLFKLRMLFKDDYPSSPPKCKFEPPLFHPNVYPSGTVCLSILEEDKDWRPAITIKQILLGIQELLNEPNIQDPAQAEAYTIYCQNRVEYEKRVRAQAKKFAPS

**Q.** With SUMO1 (from UniProt P63165) as the substance, how does the Kd read?
**A.** 82 nM
